Assay results taken from patent EP4606822A1 (MULTITUDE THERAPEUTICS INC., dated 2024).
Substitutions are numbered along the chain they refer to.

B1: humanized 4O3 antibody L2H4 (antibody, human IgG1, kappa, V domains shown)
VH: QVQLQESGPGLVKPSQTLSLTCTVSGISITTGNYRWSWIRQHPGKKLEWIGNIYYSGAITYNPSLKSRVTISRDTSKNQFFLKLSSVTAADTAVYYCARDGGTVVEGWYFDVWGKGTTVTVSS
VL: EIVLTQSPDTQSVTPKEKVTITCRASQSISDYLHWYQQKPDQSPKLLIKYASQSISGVPSRFSGSGSGTDFTLTINSLEAEDVGLYYCQSGRSFPLTFGGGTKVEIKR
notes: also called Hu4O3
B2: humanized 4O3 antibody L1H5 (antibody, human IgG1, kappa)
heavy: not shown
light: EIVLTQSPDTQSVTPKEKVTITCRASQSISDYLHWYQQKPDQSPKLLIKYASQSISGVPSRFSGSGSGTDFTLTINSLEAEDAATYYCQSGRSFPLTFGGGTKVEIKRTVAAPSVFIFPPSDEQLKSGTASVVCLLNNFYPREAKVQWKVDNALQSGNSQESVTEQDSKDSTYSLSSTLTLSKADYEKHKVYACEVTHQGLSSPVTKSFNRGEC
notes: also called Hu4O3 (L1H5); Hu4O3
B3: humanized 4O3 antibody L4H4 (antibody, human IgG1, kappa, V domains shown)
VH: B1 VH
VL: B1 VL with D41G, S43A, V83F
notes: also called Hu4O3
B4: humanized 4O3 antibody L1H4 (antibody, human IgG1, kappa)
heavy: not shown
light: B2 light
notes: also called Hu4O3
B5: humanized 4O3 antibody L4H7 (antibody, human IgG1, kappa, V domains shown)
VH: B1 VH with H42P, K46G, N52Y, F81S, K83Q, S85R, K115Q
VL: B1 VL with D41G, S43A, V83F
notes: also called Hu4O3

Target: T1, HER3 on human tumor cell lines (human, UniProt P21860 20-1342)
T1 construct: whole, on cells; The immunogen was the human HER3 extracellular domain (NM_001982.4, positions 20-643), but the flow cytometry assays used endogenous HER3 on cells; also called HER3 protein
T1 sequence (P21860 20-1342): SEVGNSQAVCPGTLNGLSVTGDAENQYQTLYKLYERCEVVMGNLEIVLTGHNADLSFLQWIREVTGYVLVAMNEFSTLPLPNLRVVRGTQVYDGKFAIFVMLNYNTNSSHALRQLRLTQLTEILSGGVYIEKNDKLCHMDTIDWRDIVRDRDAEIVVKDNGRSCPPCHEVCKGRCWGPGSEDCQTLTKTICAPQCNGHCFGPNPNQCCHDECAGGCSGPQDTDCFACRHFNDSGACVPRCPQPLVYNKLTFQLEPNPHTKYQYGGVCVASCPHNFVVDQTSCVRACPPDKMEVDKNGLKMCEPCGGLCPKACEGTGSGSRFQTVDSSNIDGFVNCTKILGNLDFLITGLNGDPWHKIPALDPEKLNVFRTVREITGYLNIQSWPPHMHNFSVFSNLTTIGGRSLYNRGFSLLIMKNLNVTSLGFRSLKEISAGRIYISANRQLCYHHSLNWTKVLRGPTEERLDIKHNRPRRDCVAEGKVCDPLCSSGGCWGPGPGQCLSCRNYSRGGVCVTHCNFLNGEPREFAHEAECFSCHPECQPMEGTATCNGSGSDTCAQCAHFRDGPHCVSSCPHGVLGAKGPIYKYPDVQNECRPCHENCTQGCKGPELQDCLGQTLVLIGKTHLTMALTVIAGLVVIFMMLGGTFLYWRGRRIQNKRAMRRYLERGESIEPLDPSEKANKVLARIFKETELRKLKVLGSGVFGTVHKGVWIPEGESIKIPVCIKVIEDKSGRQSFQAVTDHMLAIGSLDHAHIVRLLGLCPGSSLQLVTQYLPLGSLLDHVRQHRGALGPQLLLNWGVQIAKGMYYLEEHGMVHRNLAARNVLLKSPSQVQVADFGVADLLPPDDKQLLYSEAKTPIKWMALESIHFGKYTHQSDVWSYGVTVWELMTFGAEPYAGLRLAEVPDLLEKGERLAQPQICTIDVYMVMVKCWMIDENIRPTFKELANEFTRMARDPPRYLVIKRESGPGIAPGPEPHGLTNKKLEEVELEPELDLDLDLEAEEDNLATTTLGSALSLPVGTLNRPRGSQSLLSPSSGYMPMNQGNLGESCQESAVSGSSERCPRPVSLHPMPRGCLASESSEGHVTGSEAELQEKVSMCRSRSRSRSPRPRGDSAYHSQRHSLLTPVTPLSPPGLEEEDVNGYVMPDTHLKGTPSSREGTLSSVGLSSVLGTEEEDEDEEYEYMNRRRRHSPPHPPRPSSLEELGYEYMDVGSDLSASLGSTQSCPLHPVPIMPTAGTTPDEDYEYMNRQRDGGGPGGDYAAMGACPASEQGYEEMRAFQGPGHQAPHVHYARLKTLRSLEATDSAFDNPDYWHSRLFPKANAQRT
Assay: flow cytometry on SW620 cells

| Binder | EC50 [nM] |
| --- | --- |
| B1 | 1200 |
| B2 | 147 |
| B3 | 90 |
| B4 | 194 |
| B5 | 21.9 |

Target: T1, HER3 on human tumor cell lines
Assay: flow cytometry on MDA-MB-453 cells

| Binder | EC50 [nM] |
| --- | --- |
| B2 | 122 |
| B4 | 71.5 |
